What all share (assay): cell-based or functional assay
The target in experiment [1] is HLA-DQ2.5 on IHW09023 cells loaded with 33 mer gliadin peptide (human; wheat).
Experiment [2] has as its target HLA-DQ2.5 on IHW09023 cells loaded with BC hordein peptide (human; barley).
Experiment [3] concerns the target HLA-DQ2.5 on IHW09023 cells loaded with gamma 1 gliadin peptide (human; wheat).
Experiment [4] has as its target HLA-DQ2.5 on IHW09023 cells loaded with gamma 2 gliadin peptide (human; wheat).
For experiment [5], the target named is HLA-DQ2.5 on IHW09023 cells loaded with gamma 3 gliadin peptide (human; wheat).
In experiment [6] the target is HLA-DQ2.5 on IHW09023 cells loaded with gamma 4a gliadin peptide (human; wheat).
Experiment [7] deals with HLA-DQ2.5 on IHW09023 cells loaded with gamma 4d gliadin peptide (human; wheat).
The target of experiment [8] is HLA-DQ2.5 on IHW09023 cells loaded with omega1/2 gliadin peptide (human; wheat).

B1: DQN034425 (antibody, V domains shown)
VH: QVQLVESGGGVVQPGRSLRLSCAASGFTFSSSYWMCWVRQAPGQGLEWMGCVYGGSDTTYYASWTKGRFTISRDNSKNTLYLQMNSLRAEDTAVYYCARDPLNYYYYGELNLWGQGTLVTVSS
VL: DIQMTQSPSSLSASVGDRVTITCQATENIYSGLAWYQQKPGKAPKLLIYYVSTLASGIPARFSGSGSGTDFTLTISSLEPEDFAVYYCQTYHDISNVTFGQGTKVEIK
Take B1: in experiment [1], the IC50, α1a gliadin TCR, 250 nM 33mer gliadin was determined as 0.0106 µg/mL; the IC50, α1b gliadin TCR, 250 nM 33mer gliadin is 0.0464 µg/mL; the IC50, α2 gliadin TCR, 250 nM 33mer gliadin is 0.00175 µg/mL. The IC50, BC hordein TCR, 250 nM BC hordein in experiment [2] was more than 20 µg/mL. Moreover, the IC50, γ1 gliadin TCR, 250 nM γ1 gliadin in experiment [3] is more than 20 µg/mL. In experiment [4], this molecule came in with an IC50, γ2 gliadin TCR, 250 nM γ2 gliadin of more than 20 µg/mL. Besides, the IC50, γ3 gliadin TCR, 100 µM γ3 gliadin in experiment [5] was 3.1 µg/mL. This molecule also showed an IC50, γ4a gliadin TCR, 25 µM γ4a gliadin in experiment [6] of more than 20 µg/mL. This molecule returned an IC50, γ4d gliadin TCR, 100 µM γ4d gliadin in experiment [7] of more than 20 µg/mL. Also, in experiment [8], the IC50, ω1 gliadin TCR, 25 µM ω1/2 gliadin turned out to be 0.00312 µg/mL and the IC50, ω2 gliadin TCR, 250 nM ω1/2 gliadin is more than 0.5 µg/mL.

Values taken from patent US20220089743A1.
